Assay results published in publication PMC4683621.
Where “and” joins values, the source holds several entries; their conditions need not be identical. Identical values can stand only once.

Biological target: wild-type PaCLPP (Podospora anserina (endogenous in P. anserina mitochondria))
Assay: native gel or EMSA; BN-PAGE of mitochondrial protein extracts from P. anserina strains, western blot with a PaCLPP- or HsCLPP-specific antibody

wild-type PaCLPP (enzyme)
stoichiometry N: 7 and 14
